{"source": "patent US20070020327A1", "data": [{"target": "HLA-A*0201 (human)", "assay": "competition with 125I-labelled standard peptide 941.01 for purified HLA, gel filtration", "details": "remark: other sources report otherwise; scale: ratio", "values": [{"binder": "VTEFMLCAGL (modifications not checked)", "note": "[… (Kallikrein, position 192, 10 amino acids)]", "binding affinity ratio": 0.0008}, {"binder": "WVLTAAHCI (modifications not checked)", "note": "[… (PSA, position 55, 9 amino acids)]", "binding affinity ratio": 0.0008}]}, {"target": "HLA-A*0201 (human)", "assay": "competition with 125I-labelled standard peptide 941.01 for purified HLA, gel filtration", "details": "scale: ratio", "values": [{"binder": "VTWIGAAPL (modifications not checked)", "note": "[… (PSA, position 8, 9 amino acids)]", "binding affinity ratio": 0.011}, {"binder": "VTWIGAAPLI (modifications not checked)", "note": "[… (PSA, position 8, 10 amino acids)]", "binding affinity ratio": 0.0019}, {"binder": "VVFLTLSV (modifications not checked)", "note": "[VVFLTLSV (PSA, position 1, 8 amino acids)]", "binding affinity ratio": 0.0002}, {"binder": "VVFLTLSVT (modifications not checked)", "note": "[… (PSA, position 1, 9 amino acids)]", "binding affinity ratio": 0.0008}, {"binder": "VVLRKYADKI (modifications not checked)", "note": "[… (PSM, position 602, 10 amino acids)]", "binding affinity ratio": 0.0001}, {"binder": "WAEENSRLL (modifications not checked)", "note": "[… (PSM, position 434, 9 amino acids)]", "binding affinity ratio": 0.0001}, {"binder": "WAHCGGVLV (modifications not checked)", "note": "[… (Kallikrein, position 47, 9 amino acids)]", "binding affinity ratio": -0.0001}, {"binder": "WATEDTMTKL (modifications not checked)", "note": "[… (PAP, position 226, 10 amino acids)]", "binding affinity ratio": 0.0002}, {"binder": "WIGAAPLI (modifications not checked)", "note": "[WIGAAPLI (PSA, position 10, 8 amino acids)]", "binding affinity ratio": 0.0005}, {"binder": "WIGAAPLIL (modifications not checked)", "note": "[… (PSA, position 10, 9 amino acids)]", "binding affinity ratio": 0.0005}, {"binder": "WIKDTIVA (modifications not checked)", "note": "[WIKDTIVA (PSA, position 248, 8 amino acids)]", "binding affinity ratio": 0.0001}, {"binder": "FTVQAAAETL (modifications not checked)", "note": "[PSM peptide … (position 737)]", "binding affinity ratio": 0.0001}, {"binder": "GAAPLILSRI (modifications not checked)", "note": "[PSA peptide … (position 12)]", "binding affinity ratio": 0.0005}, {"binder": "GAAVVHEIV (modifications not checked)", "note": "[PSM peptide … (position 391)]", "binding affinity ratio": 0.0002}, {"binder": "GAVEPDRYV (modifications not checked)", "binding affinity ratio": 0.0001}, {"binder": "GAVEPDRYVI (modifications not checked)", "binding affinity ratio": 0.0002}, {"binder": "GIDPQSGAAV (modifications not checked)", "note": "[PSM peptide … (position 385)]", "binding affinity ratio": 0.0002}, {"binder": "GITSWGSEPCA (modifications not checked)", "note": "[PSA peptide … (position 221)]", "binding affinity ratio": 0.0001}, {"binder": "GIWSKVYDPL (modifications not checked)", "note": "[PAP peptide … (position 204)]", "binding affinity ratio": 0.0002}]}, {"target": "HLA-A*0201 (human)", "assay": "competition with 125I-labelled standard peptide for purified HLA, gel filtration", "details": "not given", "values": [{"binder": "YARTEDFFKL (modifications not checked)", "note": "[PSM 179 peptide …]", "binding affinity ratio (IC50 of the standard peptide / IC50 of the test peptide)": 0.0002}, {"binder": "YIRKRYRKFL (modifications not checked)", "note": "[PAP 84 peptide …]", "binding affinity ratio (IC50 of the standard peptide / IC50 of the test peptide)": 0.0002}, {"binder": "NVIGTLRGAV (modifications not checked)", "note": "[PSM 357 …]", "binding affinity ratio (IC50 of standard peptide / IC50 of test peptide)": 0.0001}, {"binder": "PADYFAPGV (modifications not checked)", "note": "[PSM 231 …]", "binding affinity ratio (IC50 of standard peptide / IC50 of test peptide)": 0.0001}, {"binder": "PAELTDAVKV (modifications not checked)", "note": "[PSA 125 …]", "binding affinity ratio (IC50 of standard peptide / IC50 of test peptide)": 0.0002}, {"binder": "PIDTFPTDPI (modifications not checked)", "note": "[PAP 49 …]", "binding affinity ratio (IC50 of standard peptide / IC50 of test peptide)": 0.0002}, {"binder": "PIGYYDAQKL (modifications not checked)", "note": "[PSM 296 …]", "binding affinity ratio (IC50 of standard peptide / IC50 of test peptide)": 0.0001}, {"binder": "PIPVHTVPL (modifications not checked)", "note": "[PAP 140 …]", "binding affinity ratio (IC50 of standard peptide / IC50 of test peptide)": 0.0002}, {"binder": "PLERFAELV (modifications not checked)", "note": "[PAP 352 …]", "binding affinity ratio (IC50 of standard peptide / IC50 of test peptide)": 0.0001}, {"binder": "PLILSRIV (modifications not checked)", "note": "[PSA 15 PLILSRIV]", "binding affinity ratio (IC50 of standard peptide / IC50 of test peptide)": 0.0001}, {"binder": "PLMYSLVHNL (modifications not checked)", "note": "[PSM 468 …]", "binding affinity ratio (IC50 of standard peptide / IC50 of test peptide)": 0.0008}, {"binder": "PLSEDQLLYL (modifications not checked)", "note": "[PAP 147 …]", "binding affinity ratio (IC50 of standard peptide / IC50 of test peptide)": 0.0006}, {"binder": "PLVCNGVL (modifications not checked)", "note": "[Kallikrein 216 PLVGNGVL]", "binding affinity ratio (IC50 of standard peptide / IC50 of test peptide)": 0.0001}, {"binder": "PLVCNGVL (modifications not checked)", "note": "[PSA 212 PLVGNGVL]", "binding affinity ratio (IC50 of standard peptide / IC50 of test peptide)": 0.0001}, {"binder": "PLVCNGVLQGI (modifications not checked)", "note": "[Kallikrein 216 …]", "binding affinity ratio (IC50 of standard peptide / IC50 of test peptide)": 0.002}, {"binder": "PLVCNGVLQGI (modifications not checked)", "note": "[PSA 212 …]", "binding affinity ratio (IC50 of standard peptide / IC50 of test peptide)": 0.002}, {"binder": "PLYDMSLL (modifications not checked)", "note": "[PSA 95 PLYDMSLL]", "binding affinity ratio (IC50 of standard peptide / IC50 of test peptide)": 0.0002}, {"binder": "PLYHSVYET (modifications not checked)", "note": "[PSM 550 …]", "binding affinity ratio (IC50 of standard peptide / IC50 of test peptide)": 0.0002}, {"binder": "PMFKYHLTVA (modifications not checked)", "note": "[PSM 568 …]", "binding affinity ratio (IC50 of standard peptide / IC50 of test peptide)": 0.0005}]}, {"target": "HLA-A*0201 (human)", "assay": "competition with 125I-labelled standard peptide for purified HLA, gel filtration", "details": "remark: other sources report otherwise", "units": {"IC50": "nM"}, "values": [{"binder": "DLMLLRLSEPV (modifications not checked)", "note": "[peptide 1419.13 (PSA.116.V11 / HuK2.120.V11)]", "IC50": 50}]}, {"target": "HLA-A*0201 (human)", "assay": "competition with 125I-labelled standard peptide for purified HLA, gel filtration", "details": "remark: other sources report otherwise; scale: ratio", "values": [{"binder": "KVTEFMLCAGL (modifications not checked)", "note": "[… (Kallikrein, position 191, 11 amino acids)]", "binding affinity ratio": 0.001}]}, {"target": "HLA-A*0201 (human)", "assay": "competition with 125I-labelled standard peptide for purified HLA, gel filtration", "details": "scale: ratio", "values": [{"binder": "KVTKFMLCA (modifications not checked)", "note": "[… (PSA, position 187, 9 amino acids)]", "binding affinity ratio": 0.002}, {"binder": "KVVHYRKWI (modifications not checked)", "note": "[… (Kallikrein, position 245, 9 amino acids)]", "binding affinity ratio": 0.0001}, {"binder": "KVVHYRKWI (modifications not checked)", "note": "[… (PSA, position 241, 9 amino acids)]", "binding affinity ratio": 0.0001}, {"binder": "LAGAKGVIL (modifications not checked)", "note": "[… (PSM, position 219, 9 amino acids)]", "binding affinity ratio": 0.0002}, {"binder": "LAGTEQNFQL (modifications not checked)", "note": "[… (PSM, position 83, 10 amino acids)]", "binding affinity ratio": 0.0001}, {"binder": "LAKELKFVTL (modifications not checked)", "note": "[… (PAP, position 31, 10 amino acids)]", "binding affinity ratio": 0.0002}, {"binder": "LARAASLSL (modifications not checked)", "note": "[… (PAP, position 8, 9 amino acids)]", "binding affinity ratio": 0.0002}, {"binder": "LLEKMGGSA (modifications not checked)", "note": "[… (PSM, position 305, 9 amino acids)]", "binding affinity ratio": 0.0001}, {"binder": "LLHETDSAVA (modifications not checked)", "note": "[… (PSM, position 4, 10 amino acids)]", "binding affinity ratio": 0.0006}, {"binder": "LLRLSEPA (modifications not checked)", "note": "[LLRLSEPA (Kallikrein, position 123, 8 amino acids)]", "binding affinity ratio": 0.0001}, {"binder": "LLRLSEPA (modifications not checked)", "note": "[LLRLSEPA (PSA, position 119, 8 amino acids)]", "binding affinity ratio": 0.0001}, {"binder": "LLRLSEPAEL (modifications not checked)", "note": "[… (PSA, position 119, 10 amino acids)]", "binding affinity ratio": 0.0001}, {"binder": "SIINEDGNEI (modifications not checked)", "note": "[PSM peptide … (position 129, 10 amino acids)]", "binding affinity ratio": 0.0001}, {"binder": "SLFSAVKNFT (modifications not checked)", "note": "[PSM peptide … (position 631, 10 amino acids)]", "binding affinity ratio": 0.001}, {"binder": "SLLKNRFL (modifications not checked)", "note": "[PSA peptide SLLKNRFL (position 100, 8 amino acids)]", "binding affinity ratio": 0.002}, {"binder": "SLSLGFLFL (modifications not checked)", "note": "[PAP peptide … (position 13, 9 amino acids)]", "binding affinity ratio": 0.02}, {"binder": "SLVHNLTKEL (modifications not checked)", "note": "[PSM peptide … (position 472, 10 amino acids)]", "binding affinity ratio": 0.0002}, {"binder": "SMKHPQEMKT (modifications not checked)", "note": "[PSM peptide … (position 615, 10 amino acids)]", "binding affinity ratio": 0.0001}, {"binder": "STQKVKMHI (modifications not checked)", "note": "[PSM peptide … (position 338, 9 amino acids)]", "binding affinity ratio": 0.0001}, {"binder": "SVELAHYDV (modifications not checked)", "note": "[PSM peptide … (position 107, 9 amino acids)]", "binding affinity ratio": 0.0001}, {"binder": "SVELAHYDVL (modifications not checked)", "note": "[PSM peptide … (position 107, 10 amino acids)]", "binding affinity ratio": 0.0002}, {"binder": "SVILLGRHSL (modifications not checked)", "note": "[PSA peptide … (position 67, 10 amino acids)]", "binding affinity ratio": 0.0001}, {"binder": "SVTWIGAA (modifications not checked)", "note": "[PSA peptide SVTWIGAA (position 7, 8 amino acids)]", "binding affinity ratio": 0.0001}]}, {"target": "HLA-A*0201 (human)", "assay": "competitive inhibition of 125I-labelled standard peptide binding to purified HLA, gel filtration; ratio = IC50 standard / IC50 test peptide", "details": "not given", "values": [{"binder": "VLSIALSVGCT (modifications not checked)", "note": "[… (Kallikrein, position 5)]", "binding affinity ratio": 0.0002}, {"binder": "VLTAAHCI (modifications not checked)", "note": "[VLTAAHCI (PSA, position 56)]", "binding affinity ratio": 0.0001}, {"binder": "VLVASRGRA (modifications not checked)", "binding affinity ratio": 0.0001}, {"binder": "VLVASRGRAV (modifications not checked)", "binding affinity ratio": 0.0003}, {"binder": "VLVHPQWV (modifications not checked)", "note": "[VLVHPQWV (Kallikrein, position 53)]", "binding affinity ratio": 0.0001}]}]}
